Assay: label from the status in PepcDB records

| Sequence | protein production |
| --- | --- |
| MFSFNMFDHPIPRVFQNRFSTQYRCFSVSMLAGPNDRSDVEKGGKIIMPPSALDQLSRLNITYPMLFKLTNKNSDRMTHCGVLEFVADEGICYLPHWMMQNLLLEEGGLVQVESVNLQVATYSKFQPQSPDFLDITNPKAVLENALRNFACLTTGDVIAINYNEKIYELRVMETKPDKAVSIIECDMNVDFDAPLGYKEPERQVQHEESTEGEADHSGYAGELGFRAFSGSGNRLDGKKKGVEPSPSPIKPGDIKRGIPNYEFKLGKITFIRNSRPLVKKVEEDEAGGRFVAFSGEGQSLRKKGRKP | not failed |
| MQRTLGEIMKIYFATGNPNKIKEANIILKDLKDVEIEQIKISYPEIQGTLEEVAEFGAKWVYNILKKPVIVEDSGFFVEALNGFPGTYSKFVQETIGNEGILKLLEGKDNRNAYFKTVIGYCDENGVRLFKGIVKGRVSEEIRSKGYGFAYDSIFIPEEEERTFAEMTTEEKSQISHRKKAFEEFKKFLLDRI | not failed |
| MTKGISALSNIATLRSRELGPETFIPYVRHVDETTIALESRALMTMIALDGVSFETSDVRDLNGLHRSLNTLYRNIADERLALWTHVVRRRDNAYPEGRFANPFSDGLNARYRERMVNENLFRNDLYLTLVWHPGRDPAEKAAKLLSRLSKARRSDTELDGQALKHLRDHVADVAAGLQRFGPRQLTLHEHDGILFSEPSEVLHQIVGGRREPIPLTEGRISSAIYSDRVIFGRETIEIRHEADSRYAGMFGFKEYPATTRSGMLDAILTAPFELILTQSFAFTSKADARTIMGRKQNQMVSAGDKAASQIEELGEAMDDLESNRFVLGEHHLTLAVFAPSVKELTDHMAKARAYLTSGGAVVAREDLGLEAAWWAQLPGNFRYRARSGAITSRNFAALAPYHSYPAGKKDGNEWGPAVAMLKTASGSPFYFNFHHGDLGNSFVCGPSGTGKTVLLNFMLSQLEKHGPHMVFFDKDRGADLFVRAAGGTYLPLKNGVATGCAPLKALEFTAENKVFLTGWIAKLVRSGPGELSITELRDIALAVDGVADLPVERRSIGALRTFLNNTDPEGIAARLRRWEKGGPLGWVFDNEADDIGIGARFIGYDMTDFLDNEEIRTPLMAYLFYRIEQLIDGRRIIIVIDEFWKALQDEGFRDLAQNKLKTIRKQNGLMLFATQSPRDAIVSPIAHTIIEQCPTQIFLPNPRGDRADYVDGFKLTEREFELVSRELSVESRRFIVKQGHNSVVAELNLNGFDDELAILSGRTANVELADAIRLEIGEGREDWLAVFHQRRKTA | failed |
| MNAIGLVGFAFVGAAKAIEERYDVFGVTVVGVMTALGGGTTRDLLLNRVPNSLQSPGEVALSLLGVTAAVLFVHFLDDGHQHPVVLTADAIGLAAFTTTGALLGQQAGLPVFAVVALATVNAAGGGAISDLLLGRTPFILREDFYASCAVIGGLAFWALAQIGVSVSVASAGCALAVLLARGLGIGRGWSLPTVQAWERRDAQ | failed |
| AEVDQATKPAEAKYYIAGTITDATTGQELTTAKVTLGDKSVTSSFNEQVNYKAEGYALVVSADGYYPVKRQVYLNQVSDGQTSVATVNVALVSVEAAVIPPVVPPTDPETDINEGEATKVADKAVEVAKPSESTVTDMLAGTTATPEEKKALDETLEMAGGMKVGETTPEVLADGSILAITPVKFTNPIQDAPAMVPYFYNEGCELTGDVKEVAAPVTRADGAVAADIQKAFLSNAAKALNMNAGFVQKIGYTRISVLNGYSILGYTIKGQLVSKKLTFLISGKYYEGIVSYQKSVMIYPNYYSHDSHDSHDSHGFNPNAGGGSND | not failed |
| MAKAIVSIFVVFFIFFLVISDVPEIEAQGNECLKEYGGDVGFGFCAPRIFPTICYTRCRENKGAKGGRCRWGQGSNVKCLCDFCDDTPQ | not failed |
| MRPAAARVLLGAFAFAVVADLASQALGSDTGHLLAKPLLMPLLAAYAAVRGGPRLLVVALLLGWAGDVLLLSDADPAFLAGMSSFAAGHVCYLVLFARHGRTRARGALLAGGYGLVLVTTVALLWPGLPAGLRVPVVGYSLLLTAMAYGATRLGPVAGLGGALFLLSDTLIATGVADWPQLPRPDFWIMLTYAAGQYLLVRGVTDTLGAPTAPAAAYGEVRSTTP | failed |
| MWNATPSEEPGFNLTLADLDWDASPGNDSLGDELLQLFPAPLLAGVTATCVALFVVGIAGNLLTMLVVSRFRELRTTTNLYLSSMAFSDLLIFLCMPLDLVRLWQYRPWNFGDLLCKLFQFVSESCTYATVLTITALSVERYFAICFPLRAKVVVTKGRVKLVIFVIWAVAFCSAGPIFVLVGVEHENGTDPWDTNECRPTEFAVRSGLLTVMVWVSSIFFFLPVFCLTVLYSLIGRKLWRRRRGDAVVGASLRDQNHKQTVKMLAVVVFAFILCWLPFHVGRYLFSKSFEPGSLEIAQISQYCNLVSFVLFYLSAAINPILYNIMSKKYRVAVFRLLGFEPFSQRKLSTLKDESSRAWTESSINT | failed |
| MPSSTTVPTRRGLVSGPSSSDAHGDMPAVSVIMNCLNCERDLAEAIGSVFAQTFDDWEIVFWDNGSTDRSAEIAQGFGERVRYFRATETVPLGAARNLAIAKARGEFIAFLDCDDVWLPEKLERQVALFRANPRVGLVCTDTVMFTGAKDLNRLFEHAHPARGHVFRELMTTQWISMSSAVIRRNALDGMDHWFDESLNVCEEADVFYRIAWDWELDHVDAPLTRWRVHGANTTFRKFGQFAEETLRILDKHRAMYPGYDERYADLVALLRRRAAFQRAVALWREGRGAEARATIAPFDASPKFRLFRLATYLPGALFDPLARLYFALPAFLRRLEHHHHHH | failed |
| MDGVGAHAHTGELRSAQALRSASLWLWPLLCWALLAGWPLGAHPLKHTAYHTVTRWDMDDGLPHNLVHAVAQGSDGVIWLGTWEGVARFNGRDFTVFDRQNTPGVELGGVFVVVRDGDGMLFGTAFDGVYRHQDGRWQQLGDASARHLAVSALLRRADGALWVGTPQTLYRIELDGRVVDVGRQAGLPRARITALSTDARGDLWIGTDVGLYQLPLGASAATAWGQAHGMADTPVRRLASDRQGGLLVAGDDGVWWWSRGGGLQRFRQGQRVDSLVMDRSGHLWMSLSAGTLVVHSGPDDPDEQIAISGVASPALLEDAEGLIWVGSTHGLFRVAEGAAHGVTIDDGLASDYVRSVLQTADGTVWVGSAVGLDRWRDGQIARVPFSRGSAGRVLEQSVLALADAGDGGVWAGTYSQGVLRLDAQGAVVQRIGAAEGLSSLSVRAVLPDGDALWIGTTAGLVRWHDGRARRYTAADGVPDGSVQVLYRDAQGTIWSGTDRGMTALSPDGGTRAWLGEQDFPGQNAFDFLRDPSGDLWIASDRGLLRLRGERFQVYDHRVGLPRDKVFRVIDDGRGYLWLSSNHGVFRIARRDFDQIDAGTREQLSVEVVDRSDGMPGNQGNGSSAPAGWLTQTGQLLFPTAAGLGVIDPARVGTLQGHRVPIVIERLVVDGMVQPLDGPHRLSADTRRIAIGYAGLNFRGPDKVRYRYRLDGFDPDWVDADSATEAVYTNLPPGRFRFRVQAMSLPVDWRQAALLGETSVVLELAPPWWRRGEVIGLGVLCLASVIYGFYLWRTASYRRRQRELNVVIDKRTRELSDKNLALQQASQEREALMRQLEYRASHDVLTALPNRREAERVLQQWLDEAQAGGAPLALALADIDHFKRINDAHGHEVGDAVLRAVGEVLADQEHAHCFAARHGGEEFLLAVTGLEAAHARALFEQQRQRLGTIAIAADEATVQCTASMGMAMSNEAHSRRELLALADRRLYHAKRQGRDRLIDQ | failed |
| MQARDIMTTTVVSISPDVSVRHAVAMMLQNHVSGLPVVDDHGRVCGMVTEGDLLLRREVRYAPRPARAPELISEIDLERYIGSNGWCVADVMSQDVIVARPDSEVSDIAESLQVHRIKRLPIVEDERLVGIVSRRDILRVIAEAPTTILPRGDEAIRLAVRTRLRSDLGLTPQKVHVSVRNGQVTVDGQVESELKRRAIKVLVEGLGGIAGYKDGLLVSPAHIQD | failed |
| MKKLIVDLDGTLTQANTSDYRNVLPRLDVIEQLREYHQLGFEIVISTARNMRTYEGNVGKINIHTLPIITEWLDKHQVPYDEILVGKPWCGHDGFYIDDRAVRPSEFASMNLEEIHQLFEKEKSCS | not failed |
| KSHSRTLTPTPDGKTMLRPVLRLTSAMTREVATDHKAFYVLFTWDQEAQIYELVAQTVSERKNWCALITETAGSLKV | failed |

Source: a protein production outcome set (Wang et al. 2014)
